From patent publication US20220356230A1 (published 2022)

Assays:
[1] = biological target: T1, MERS-CoV (NCoV/Novel coronavirus) Spike Protein fragment (RBD, aa 367-606, His Tag) (Sino 40071-V08B1) (MERS-CoV, UniProt K9N5Q8 367-606); experiment: Luminex bead assay, supernatant
T1 sequence: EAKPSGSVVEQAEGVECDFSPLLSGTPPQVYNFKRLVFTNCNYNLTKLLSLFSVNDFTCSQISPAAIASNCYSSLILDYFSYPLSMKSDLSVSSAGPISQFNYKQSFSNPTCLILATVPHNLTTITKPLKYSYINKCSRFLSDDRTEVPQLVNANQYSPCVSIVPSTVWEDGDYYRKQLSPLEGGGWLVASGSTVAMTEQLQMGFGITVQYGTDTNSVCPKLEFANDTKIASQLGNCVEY

[2] = biological target: T2, MERS-CoV (NCoV/Novel coronavirus) Spike Protein S1 Protein (aa 1-725, His Tag) (Sino 40069-V08B1) (MERS-CoV, UniProt K9N5Q8 18-725); experiment: Luminex bead assay, supernatant
T2 sequence: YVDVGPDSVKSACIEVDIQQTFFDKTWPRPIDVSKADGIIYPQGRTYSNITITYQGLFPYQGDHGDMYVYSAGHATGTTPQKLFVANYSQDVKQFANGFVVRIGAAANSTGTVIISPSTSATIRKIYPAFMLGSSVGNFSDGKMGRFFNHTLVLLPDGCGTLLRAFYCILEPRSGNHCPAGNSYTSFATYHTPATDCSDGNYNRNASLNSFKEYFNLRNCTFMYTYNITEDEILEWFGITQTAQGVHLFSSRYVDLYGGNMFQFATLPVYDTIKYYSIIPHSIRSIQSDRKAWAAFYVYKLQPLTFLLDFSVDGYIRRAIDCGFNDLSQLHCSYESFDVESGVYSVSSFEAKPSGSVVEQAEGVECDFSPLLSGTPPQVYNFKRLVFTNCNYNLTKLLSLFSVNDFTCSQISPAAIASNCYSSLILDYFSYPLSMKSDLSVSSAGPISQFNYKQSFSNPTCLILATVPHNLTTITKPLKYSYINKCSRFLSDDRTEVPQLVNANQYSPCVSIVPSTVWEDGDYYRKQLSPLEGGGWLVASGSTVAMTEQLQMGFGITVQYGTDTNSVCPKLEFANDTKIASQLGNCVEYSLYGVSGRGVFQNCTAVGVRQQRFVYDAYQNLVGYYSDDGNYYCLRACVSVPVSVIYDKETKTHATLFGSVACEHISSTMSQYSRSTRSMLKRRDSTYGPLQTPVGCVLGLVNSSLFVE

[3] = biological target: Human SARS Coronavirus Spike S1 Subunit Protein (His Tag) (Sino 40150-V08B1) (Human SARS Coronavirus, UniProt P59594 14-667); experiment: Luminex bead binding, antigen on microspheres, antibody supernatant

B1: mAb10923 (antibody, V domains shown)
VH: QVQLVQSGAEVKKPGASVKVSCKASGYTFINYYIHWVRQAPGQGLEWMGWINPNSGGTNYAQKFQGRVTMTRDTSISTAYMELSRLRSDDTAVYYCAIITIFGVVTWFDPWGQGTLVTVSS
VL: not shown
Binding signal (MFI) [1]: 37 MFI | Binding signal (MFI) [2]: 25 MFI

B2: mAb10930 (antibody, V domains shown)
VH: EVQLVESGGGLVQPGRSLRLSCAASGFTFDDYAMYWVRQAPGKGLEWVSGISWNSGSIGYADSVKGRFTISRDNAKNSLYLQMNSLRAADTALYYCAKDKDWNSRGYYYYGMDVWGQGTTVTVSS
VL: not shown
Binding signal (MFI) [1]: 27 MFI | Binding signal (MFI) [2]: 22 MFI

B3: mAb10920 (antibody, V domains shown)
VH: QVQLVESGGGVVQPGRSLRLSCAASGFTFSYYGMHWVRQAPGKGLEWVAVIWYDGSNKFYADSVKGRFTISRDNSKNTLYLQMNSLRAEDTAVYYCAAARPGYYYGMDVWGQGTTVTVSS
VL: DIQMTQSPSSLSASVGDRVTITCRASQGISNYLAWFQQKPGKAPNSLIYAASSLQRGVPSKFSGSGSGTDFTLTISSLQPEDFATYYCQQYNSYPRTFGQGTKVEIKR
Binding signal (MFI) [1]: 39 MFI | Binding signal (MFI) [2]: 27 MFI

B4: mAb10989 (antibody, V domains shown)
VH: QVQLVQSGAEVKKPGASVKVSCKASGYIFTGYYMHWVRQAPGQGLEWMGWINPNSGGANYAQKFQGRVTLTRDTSITTVYMELSRLRFDDTAVYYCARGSRYDWNQNNWFDPWGQGTLVTVSS
VL: QSALTQPASVSGSPGQSITISCTGTSSDVGTYNYVSWYQQHPGKAPKLMIFDVSNRPSGVSDRFSGSKSGNTASLTISGLQAEDEADYYCSSFTTSSTVVFGGGTKLTVLG
MFI [3]: 21 MFI

B5: mAb10967 (antibody, V domains shown)
VH: EVQLVESGGGLVQPGGSLRLSCAASGFTVSSNYMSWVRQAPGKGLEWVSVIYPGGSTFYADSVKGRFTISRDNSKNTLYLQMNSLRAEDTAVYYCARDQRDFAWGQGTLVTVSS
VL: DIQMTQSPSSLSASVGDRVTITCQASQDISNYLNWYQQKPGKAPKLLIYDASNLETGVPSRFSGSGSGTDFTFTISGLQPEDIATYYCQQYDNLPPTFGQGTRLEIKR
MFI [3]: 21 MFI

B6: mAb10954 (antibody, V domains shown)
VH: EVQLVESGGGLVQPGGSLRLSCAASGITVSSNYMSWVRQAPGKGLEWVSLIYSGGSTYYADSVKGRFTISRDNSKNTLYLQMNSLRVEDTAVYYCARDHGMAAAGYNYWGQGTLVTVSS
VL: DIQMTQSPSSLSASVGDRVTITCQASQDINKYLNWYQQKPGKAPKLLIYDASNLETGVPSRFSGSGSGTDFTFTINSLQPEDFATYFCQQYDNLPPAFGQGTKVEIKR
MFI [3]: 15 MFI

B7: mAb10934 (antibody, V domains shown)
VH: not shown
VL: DIQMTQSPSSLSASVGDRVTITCQASQDIWNYINWYQQKPGKAPKLLIYDASNLKTGVPSRFSGSGSGTDFTFTISSLQPEDIATYYCQQHDDLPPTFGQGTKVEIKR
Binding signal (MFI) [1]: 24 MFI | Binding signal (MFI) [2]: 20 MFI

B8: mAb10938 (antibody, V domains shown)
VH: EVQLVESGGGLVQPGGSLRLSCAVSGFTVSSNYMSWVRQAPGKGLEWVSLIYSGGSTFYADSVKGRFTISRHNSKNTLYLQMNSLRAEDTAVYYCAREGGYSYDYNYWGQGTLVTVSS
VL: DIQMTQSPSSLSASVGDRVTITCQASQDIRNYLNWYQQKPGKAPKLLIYDASNLETGVPSRFSGIGSGTDFTFTISSLQPEDIATYYCQQYDNLPITFGQGTRLEIKR
Binding signal (MFI) [1]: 25 MFI | Binding signal (MFI) [2]: 20 MFI

B9: mAb10937 (antibody, V domains shown)
VH: QITLKESGPTLVKPTQTLTLTCTFSGFSLSTNVVGVGWIRQPPGKALEWLALIYWNDDKRYSPSLKSRLTITKDTSKNQVVLTMTNMDPVDTATYYCAHGPTGDYFDYWGQGTLVTVSS
VL: not shown
Binding signal (MFI) [1]: 27 MFI | Binding signal (MFI) [2]: 22 MFI

B10: mAb10965 (antibody, V domains shown)
VH: EVQLVESGGGLIQPGGSLRLSCAASVFTVSYNYMSWVRQAPGKGLEWVSVIYSGGSTYYADSVKGRFTISRDNSKNTLYLQMNSLRAEDTAVYYCARALPGWGGSFEYFDYWGQGTLVTVSS
VL: not shown
MFI [3]: 16 MFI

B11: mAb10936 (antibody, V domains shown)
VH: QVQLVESGGGVVQPGRSLRLSCAASGFTFRNYGMHWVRQAPGKGLEWVSVIWYDGSNRYYADSVKGRFTISRDTSKNTLYLQMNSLRAEDTAVYYCARDPPITGTTGGDAFDIWGQGTMVTVSS
VL: not shown
Binding signal (MFI) [1]: 29 MFI | Binding signal (MFI) [2]: 20 MFI

B12: mAb10985 (antibody, V domains shown)
VH: EVQLVESGGGLVQPGRSLRLSCAASGFTFDDYAMHWVRQAPGKGLEWVSGISWNRGSIGYADSVKGRFTISRDNAKNSLYLQMSSLRAEDTALYYCAKDGERWDSVVVPSARNGMDVWGQGTTVTVSS
VL: QSVLTQPPSVSGAPGQRVTISCTGSSSNIGAGYDVHWYQQLPGTAPKLLIYGNSNRPSGVPDRFSGSKSGTSASLAITGLQAEDEADYYCQSYDSSLSGSYVFGTGTKVTVLG
Binding signal (MFI) [1]: 31 MFI | Binding signal (MFI) [2]: 22 MFI

B13: mAb10986 (antibody, V domains shown)
VH: EVQLVESGGGLVQPGGSLRLSCAASEFTVSSNYMSWVRQAPGKGLEWVSVIYSGGSTFYADSVKGRFTISRDNSKNTLYLQMNSLRAEDTAVYYCARALPYGDLHFDYWGQGTLVTVSS
VL: QSVLTQPPSVSGAPGQRVTISCTGSSSNIGTGYDVHWYQQLPGTAPKLLIYGNTNRPSGVPDRFSGSKSGTSASLAITGLQAEDEADYYCQSYDSSLSDSYVFGTGTKVTVLG
Binding signal (MFI) [1]: 27 MFI | Binding signal (MFI) [2]: 20 MFI

B14: mAb10984 (antibody, V domains shown)
VH: EVQLVESGGGLVQPGGSLRLSCAASGLTVNRNYMSWVRQAPGKGLEWVSLIYSGGSTYYADSVKGRFTISRDNSKNTLYLQMNSLRLEDTAVYYCARGELGIPYGMDVWGQGTTVTVSS
VL: QSVLTQPPSVSAAPGQKVTISCSGSSSNIGNNYVSWYQQLPGTAPKLLIYDNNKRPSGIPDRFSGSKSGTSATLGITGLQTGDEADYYCGTWDSSLSAGVFGGGTKLTVLG
Binding signal (MFI) [1]: 29 MFI | Binding signal (MFI) [2]: 20 MFI
